The values that follow come from article PMC6584995, “Disruption of an amino acid transporter LHT1 leads to growth inhibition and low yields in rice” (BMC Plant Biology, 2019).

Substrate in the data set: NC(=O)C[C@H](N)C(=O)O
The data set is described as follows: two-electrode voltage clamp in Xenopus oocytes, Asn-induced currents. Format: cell-based, Oryza sativa. The note with it: pH 5.4 (Tris/MES), currents at -140 mV, holding potential -40 mV, transport.

B1: OsLHT1 (Oryza sativa Japonica Group) (protein)
chain: MGTQVADNYPPAKDGRSAQEKAIDDWLPITSSRNAKWWYSAFHNVTAMVGAGVLSLPYAMSELGWGPGIAVLILSWIITLYTLWQMVEMHEMVPGKRFDRYHELGQHAFGEKLGLWIVVPQQLVVEVGVNIVYMVTGGKSLKKFHDVLCEGHGCKNIKLTYFIMIFASVHFVLSQLPNFNSISGVSLAAAVMSLSYSTIAWGASVDKGKVADVDYHLRATTSTGKVFGFFSALGDVAFAYAGHNVVLEIQATIPSTPEKPSKKPMWKGVVVAYIIVALCYFPVALVGYWAFGNHVDDNILITLSRPKWLIALANMMVVIHVIGSYQIYAMPVFDMIETVLVKKLRFPPGLTLRLIARTLYVAFTMFIAITFPFFGGLLGFFGGFAFAPTTYFLPCIMWLAIYKPRRFSLSWFTNWICIILGVMLMILSPIGGLRQIIIDAKTYKFYS
As a reminder, the Km is the concentration of substrate that gives half-maximal velocity. B1: the Km was determined as 583 ± 51 µM.
